This assay addresses T1, membrane CD146 on cells (U87, U373, HUVEC) (human, UniProt P43121 24-646).
T1 construct: whole, on cells; also called MCAM; membranous CD146
T1 sequence (looked up): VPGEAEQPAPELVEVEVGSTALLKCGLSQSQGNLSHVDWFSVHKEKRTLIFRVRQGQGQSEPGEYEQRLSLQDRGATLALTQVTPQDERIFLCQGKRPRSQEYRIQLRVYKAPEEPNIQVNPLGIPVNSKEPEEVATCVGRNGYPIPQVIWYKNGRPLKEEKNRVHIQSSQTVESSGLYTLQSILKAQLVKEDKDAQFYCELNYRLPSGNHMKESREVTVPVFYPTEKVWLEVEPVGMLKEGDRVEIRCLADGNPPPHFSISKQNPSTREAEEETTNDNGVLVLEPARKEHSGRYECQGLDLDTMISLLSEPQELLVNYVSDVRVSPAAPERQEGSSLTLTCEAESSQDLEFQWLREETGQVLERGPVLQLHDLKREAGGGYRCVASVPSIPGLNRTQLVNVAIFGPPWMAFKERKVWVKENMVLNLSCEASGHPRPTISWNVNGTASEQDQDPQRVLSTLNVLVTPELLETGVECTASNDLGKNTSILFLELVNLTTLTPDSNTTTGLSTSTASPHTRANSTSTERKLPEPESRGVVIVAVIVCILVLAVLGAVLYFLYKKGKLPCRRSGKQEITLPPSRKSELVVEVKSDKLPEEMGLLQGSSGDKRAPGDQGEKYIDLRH
Briefly: co-immunoprecipitation with anti-CD146 antibody S-Endo1 from U87 cells (reproduced in U373), western blot. Here is the method:
Non-confluent U373 cells were used for immunoprecipitation with IgG or anti-CD146 antibody. Western-blotting was then carried out using antibodies directed against VEGFR2, CD146 and integrin subunits αv and β3. Membrane receptor EPcam was used as a negative control (A). U373 cells transfected or not with siRNA targeting β3 integrin were stimulated for 25 min with sCD146 or VEGF, and CD146 was immunoprecipitated before western blotting was done using antibody directed against total phospho-tyrosine (B). Control, CD146-KO, VEGFR2-KO or β3-KO U87 cells were stimulated for 25 min with either sCD146 or VEGF. Lysates were then subjected to western-blotting and membranes were probed with either anti-phospho β3 Y759 (C) or anti-phospho VEGFR2 Y1054 (D). Average of 3 experiments is shown; *P<0.05, **P<0.01, ***p<0.001, experimental vs control.
Briefly, cells were grown on plates and treated as a function of the experiment, then washed in PBS, scraped off the plates and extracted with 300 μl of ice-cold RIPA buffer (150 mM NaCl, 50 mM Tris HCl, pH 7.4, 2.4 mM EDTA, 1% Nonidet P40, 0.5 mM phenylmethylsulfonyl fluoride, supplemented with protease and phosphatase inhibitor (A32959)) for 30 min at 4° C. After centrifugation (12,000 g, 10 min, 4° C.) to eliminate cell debris and nuclei, the Pierce™ BCA protein assay kit was used to quantify protein concentration. […]

B1: EPCAM on cells (U87, U373) (other, human, UniProt P16422 24-314, looked up)
chain: QEECVCENYKLAVNCFVNNNRQCQCTSVGAQNTVICSKLAAKCLVMKAEMNGSKLGRRAKPEGALQNNDGLYDPDCDESGLFKAKQCNGTSMCWCVNTAGVRRTDKDTEITCSERVRTYWIIIELKHKAREKPYDSKSLRTALQKEITTRYQLDPKFITSILYENNVITIDLVQNSSQKTQNDVDIADVAYYFEKDVKGESLFHSKKMDLTVNGEQLDLDPGQTLIYYVDEKAPEFSMQGLKAGVIAVIVVVVIAVVAGIVVLVISRKKRMAKYEKAEIKEMGEMHRELNA
notes: whole, on cells
For B1, the binding result is on record as “no binding”.
